Test: yeast display, Sf9 membrane polyspecificity reagent, FACS + sequencing; frameworks hold sequencing errors
How it was run: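 A nanobody's polyreactivity label depends on the gate it was sorted from. Yeast display cells were stained with 10% biotinylated, detergent-solubilized Sf9 membrane reagent for 1 hour at 4 °C, enriched on streptavidin microbeads and sorted by FACS. The low and high (top ~1%) gates were set on anti-HA fluorescence for expression and streptavidin fluorescence for reagent binding.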

Question: For “QVQLVDSGGGLVQAGGRLRLSCAASGSIYAAYTMGRYRQAPGKERELVAAISVSTVSTYYADSVKGRFTISRDNAKNTVYLQMNSLKPDDTAVYYCNADATYSYPEKDEPDSWGQGTQVTVSS”, which “polyreactivity (PSR sort gate)” value is on record?
Answer: low polyreactivity

Question: Which “polyreactivity (PSR sort gate)” value does the source give for “QVQLVDSGGGLVQAGGSHRLSCAASGLTFRKYPMGWYRQAPGKERELVATISRNGGSTYYADSVKGRFTISRDNAKNTVYFQMNSLKPEDTAVFYCAADYYNYDYAGYGYWGQVTQVTVSS” here?
Answer: high polyreactivity

Question: For “QVQLVDSGGGLVQAGGSLCLSCPASGGTSRVNAMGWYRQAPGKETELVARIRSGGSTYYADSVKGRFTISRDNAKNTVYFKMNRLKPEDTAVYHCAAVPRRTGQQQDMDYWGQGTQVTVSS”, which “polyreactivity (PSR sort gate)” value is on record?
Answer: high polyreactivity

Question: Which “polyreactivity (PSR sort gate)” value does the source give for “QVQLVDSGGGLVQAGGSLLLSCAASGSTYKFYAMGWYRQAPGKERELVASITSSSGPTYYADSVKGRFTISRDNAKNTVYLQMKSLKPEDTAVYYCAKRPIRYYHLLRGNYWGQGTQVTVSS” here?
Answer: low polyreactivity

Question: Which “polyreactivity (PSR sort gate)” value does the source give for “QVQLVDSGGGLVQAGGSLRESCAASGSTFYYNDMGWSRQAPGKDRELVAAIRTSGSTNYAESVKGRFTLSRDNAKNTVYLQMNSLKPEDTEVYYCNAVVRHWFPGWYGRGDDYWGQGTQVTVSS” here?
Answer: low polyreactivity

Question: Which “polyreactivity (PSR sort gate)” value does the source give for “QVQLVDSGGGLVQAGGSLRLGCAASGRIFAGYGMGWYRQAPGKERELVATITSGGSTYYADSLKGRFTISRDNAKNTVYLQMNSLKPEDTAVYYCNRYFSEALLHGSSYNRYYYWGQGTQVSVSS” here?
Answer: low polyreactivity

Question: With “QVQLVDSGGGLVQAGGSLRLICAASGRTFGTNALGWYRQAPGKEREFVAAIRWSDGSTYYADSVKGRFTISRDNAKNTVYLQMNSLKPEDTAVYYCAKEYYIVDVIHDYALYLYDYWGQGTQVTVSS” as the sequence, how does the “polyreactivity (PSR sort gate)” value read?
Answer: low polyreactivity

Question: With “QVQLVDSGGGLVQAGGSLRLICAASGRTIWYYAMGWYRQAPGKERELLASITRSGGSTYADSVKGRFTISRDNAKNSVYLQMYSLKPEDTAVDYCAATRPRIPVYQNNYGYWGQGTQVTVSS” as the sequence, how does the “polyreactivity (PSR sort gate)” value read?
Answer: high polyreactivity

Question: For “QVQLVDSGGGLVQAGGSLRLICDASGFIFFAYAMGWYRQAPGKERELVAVITSGGGTNYADSVKGRFTFSRDNAKNTVYLQMTSLKPEDTAVYYCNADYFFASTEFYYWGQGTQVTVSS”, which “polyreactivity (PSR sort gate)” value is on record?
Answer: low polyreactivity

Question: Which “polyreactivity (PSR sort gate)” value does the source give for “QVQLVDSGGGLVQAGGSLRLIFAASGITQPYYAMGWYRQAPGKERELVAGISSRGGSTYYADSVKGRFTISRDNAKNTVYLQMNSLIPEDTAVYYCAAKVASTRLGPAYGYWGQGTQVTLSS” here?
Answer: high polyreactivity

Question: Which “polyreactivity (PSR sort gate)” value does the source give for “QVQLVDSGGGLVQAGGSLRLRGAASGRIFFYYAMGWYRQAPGKERELLAAITYSVDSTYYADSVKGRFTISRDNAKNTVYLQMNSLKPEDTAVYYCAADDIHYVIHAYYSSGVDYWGQGTQVTVSS” here?
Answer: low polyreactivity

Question: Which “polyreactivity (PSR sort gate)” value does the source give for “QVQLVDSGGGLVQAGGSLRLSCAACGSTFVLYGMGWYRQAPGKQRELVADITGGGSSTYYADSVKGRFTISRDYAKNTVYLQMNSLKPEDTAVYYCNADYYPFYWIEPATPYLGFDYWGQGTQVTVSS” here?
Answer: low polyreactivity

Question: For “QVQLVDSGGGLVQAGGSLRLSCAASGAIFDIYGMGWYRQAPGKERELVASISGGAGSTNYADSVKGRFTISRDNAKNTVYLQMNSLKPEDTAVYYCAAEVYVPDYFQHKFDVEYEYWGHGTQVTVSS”, which “polyreactivity (PSR sort gate)” value is on record?
Answer: low polyreactivity

Question: Which “polyreactivity (PSR sort gate)” value does the source give for “QVQLVDSGGGLVQAGGSLRLSCAASGFIFAHYAMGWYRPAPGKESELVAAISSRGGSTYYADSVKGRFTISRDNAKNTVYLQMNSLKPEDTAVYYCAKARHRPARGYEYWGQGTQVTVSS” here?
Answer: high polyreactivity

Question: Which “polyreactivity (PSR sort gate)” value does the source give for “QVQLVDSGGGLVQAGGSLRLSCAASGFIFAPYAMGWYRQAPGKERELVAAISSSGGSTYYADSVKGRFTISRDNAKNTVYLQMNSLKPEDTAVYYCAVDYLTLTYEYYYWGQGTQVTVSS” here?
Answer: low polyreactivity

Question: For “QVQLVDSGGGLVQAGGSLRLSCAASGFIFPLYTMGWSRQAPGKERELVAAITGSGGSTYYADSVKGRFTISRDNEKNTVYLQMNSLKPEDSAVYYCAKDYTYGMDWGQGTQVTVSS”, which “polyreactivity (PSR sort gate)” value is on record?
Answer: low polyreactivity

Question: Which “polyreactivity (PSR sort gate)” value does the source give for “QVQLVDSGGGLVQAGGSLRLSCAASGFIFRRNAMGWYRQAPGKERELVAAITGGGGSTYYADSVKGRFTISRDNAKNTVYLQMNSLKPEDTAVYYCNALPARRRWQVDYWGQGTQVTVSS” here?
Answer: high polyreactivity

Question: For “QVQLVDSGGGLVQAGGSLRLSCAASGFIFRRYAMGWYRQAPGKERDLVAVIRSSGGSTYYADSVKGRFTISRDNAKNTVYLQMNSLKPEDTAVYYCAARSILGYRSYGYWGEGTQVTVSS”, which “polyreactivity (PSR sort gate)” value is on record?
Answer: high polyreactivity

Question: Which “polyreactivity (PSR sort gate)” value does the source give for “QVQLVDSGGGLVQAGGSLRLSCAASGFIFRYYAMGWNRQATGKERELVAAISWSTDNTYYADSVKGRFTILRDNAKNTVYLQMNSLKPEDTAVYYCAADEGWYGPKLDYWGQGTQVTVSS” here?
Answer: low polyreactivity

Question: Which “polyreactivity (PSR sort gate)” value does the source give for “QVQLVDSGGGLVQAGGSLRLSCAASGFTFRYYAMGWYRQAPGKERELVAAISSSGTRTYYADSVKGRFTISRDNAKTTVYLQMNSLKPEDTAVYYCNAVSPTSTVDYWGQGTQVTVSS” here?
Answer: high polyreactivity

Question: Which “polyreactivity (PSR sort gate)” value does the source give for “QVQLVDSGGGLVQAGGSLRLSCAASGFTFTLNAMGWYRQAPGKERELVAGISSGGSTNYADSVKGRFTISRDNAKNTVYLQMNSLKPEDTAVYYCAADRGYVWRYDYWGEGTQVTVSS” here?
Answer: low polyreactivity

Question: Which “polyreactivity (PSR sort gate)” value does the source give for “QVQLVDSGGGLVQAGGSLRLSCAASGFTFTQYAMAWYIQAPGKERELVASIRSGGSTKYADSVKGRFTISRDNAKNTVYLQMISLKPEDTAVYYCAKDRYHISFFYQMEFWGQGTQVTVSS” here?
Answer: low polyreactivity

Question: For “QVQLVDSGGGLVQAGGSLRLSCAASGFTFVPYAMGWYRQAPGKERETNADSVKGRFTISRDNAKNTVYLQMNSLKPEDTAVYYCAAGGYGPYDYWGQGTQVTVSS”, which “polyreactivity (PSR sort gate)” value is on record?
Answer: low polyreactivity

Question: With “QVQLVDSGGGLVQAGGSLRLSCAASGFTFWRYVMGWYRQAPGKERELVAAISGRGSRTFYADSVKGRFTISRDNAKNTVYLQMNSLKPEDTAVYYCNAYPGTSGTLYVTPYDYWGQGSQVTVSS” as the sequence, how does the “polyreactivity (PSR sort gate)” value read?
Answer: high polyreactivity

Question: For “QVQLVDSGGGLVQAGGSLRLSCAASGFTITRNVMGWYRQAHGKERELVAAITSGGNTNYADSVKGRFTISRDNAKNTVYLQMNSLKPEDTAVYYCATSYHRRYDYWGQGTQVTVSS”, which “polyreactivity (PSR sort gate)” value is on record?
Answer: low polyreactivity

Question: Which “polyreactivity (PSR sort gate)” value does the source give for “QVQLVDSGGGLVQAGGSLRLSCAASGGLFIVNDMGWYIQAPGKEMELVAAITSGGGKNYADSVKGRFTISRDNAKNTVYLQMNSLKPEVTAVYYCARDTYRQIVSNESYGFWGHGTQVTVSS” here?
Answer: low polyreactivity

Question: For “QVQLVDSGGGLVQAGGSLRLSCAASGIIFAYNAMGWYRQAPGKERELVAAITSGTSTHYADSVKGRFTISRDNAKNSVYLHINSLNPEDTAVYYCNADYFFEFDYWGQGTQVTVSS”, which “polyreactivity (PSR sort gate)” value is on record?
Answer: low polyreactivity

Question: For “QVQLVDSGGGLVQAGGSLRLSCAASGIIFRTNAMGWYRQAPGKERELVAAIRWSDGSTYYADSVKGRFTISRDNAKNTVYLQMNSLKPEDTAVYYCNAASQYTFDCSFDDWGQGTQVTVSS”, which “polyreactivity (PSR sort gate)” value is on record?
Answer: low polyreactivity

Question: For “QVQLVDSGGGLVQAGGSLRLSCAASGISFGVYAMGWYRQAPGKERELVAAISRRGASTYYADSVKGRFTISRDNAKTTVYLQMNILNPEDTAVYYCPAYLARRQYDYWGQGTKVTVSS”, which “polyreactivity (PSR sort gate)” value is on record?
Answer: high polyreactivity

Question: With “QVQLVDSGGGLVQAGGSLRLSCAASGITFGYYAMGWYRQAPGKERELVAAISFTGASTYYADSVKGRFTISRDNAKNTVYLQMYSLKPEDTAVYYCAADPYVPYHDFLSGFDYWGQGTQVTVSS” as the sequence, how does the “polyreactivity (PSR sort gate)” value read?
Answer: low polyreactivity

— the nanobody polyreactivity screen of Harvey et al. (2022)
